Read-outs that look alike come from different tables or passages of the source.
Columns and labels:
HLA-B*0702 (human) = experiment: competition with 125I-labeled probe peptide, purified HLA
HLA-B0702 (human) [1] = experiment: competition vs 125I probe peptide, purified HLA
HLA-B0702 (human) [2] = experiment: competition with 125I-labelled probe peptide on purified soluble HLA; details: remark: other sources report otherwise
HLA-A*0201 (human) [3] = experiment: competition with radiolabeled probe peptide for purified soluble HLA-A*0201
HLA-A0201 (human) [4] = experiment: competition with 125I-labelled probe peptide, purified HLA
HLA-A0201 (human) [5] = experiment: competition vs 125I probe peptide, purified HLA-A*0201
HLA-A*0201 (human) [6] = experiment: competition binding, purified soluble HLA, 125I-labelled probe peptide
HLA-A*0301 (human) = experiment: competition with 125I-labelled probe peptide on purified soluble HLA
HLA-B0702 (human) [7] = molecular target: HLA-B0702 (human)
HLA-DRB1*0101 (human) = experiment: competition vs 125I-labelled probe peptide, purified HLA-DR
HLA-DRB1*0301 (human) = experiment: as above
[8] = remark: other sources report otherwise

LPRRGPRLG (modifications not checked)
IC50 (HLA-B*0702 (human)): 124 nM

APLGGAARA (modifications not checked)
IC50 (HLA-B*0702 (human)): 115 nM
Ki (HLA-B0702 (human) [1]): 115 nM

APLGGAARAL (modifications not checked)
IC50 (HLA-B*0702 (human); [8]): 0.8 nM
Ki (HLA-B0702 (human) [2]): 1 nM
Ki (HLA-B0702 (human) [1]; [8]): 1 nM

APTGSGKST (modifications not checked)
IC50 (HLA-B*0702 (human)): 370 nM
Ki (HLA-B0702 (human) [1]): 370 nM

QIVGGVYLL (modifications not checked)
IC50 (HLA-A*0201 (human) [3]): 228 nM

DLMGYIPLV (modifications not checked)
IC50 (HLA-A*0201 (human) [3]; [8]): 83 nM
Ki (HLA-A0201 (human) [4]; [8]): 36 nM

YIPLVGAPL (modifications not checked)
IC50 (HLA-A*0201 (human) [3]; [8]): 337 nM
Ki (HLA-A0201 (human) [5]; [8]): 77 nM

NLPGCSFSI (modifications not checked)
IC50 (HLA-A*0201 (human) [3]; [8]): 83 nM
Ki (HLA-A0201 (human) [5]; [8]): 70 nM
Ki (HLA-A2402 (human); [8]): 8 nM

FLLALLSCL (modifications not checked)
IC50 (HLA-A*0201 (human) [3]; [8]): 136 nM

CLVDYPYRL (modifications not checked)
IC50 (HLA-A*0201 (human) [3]): 437 nM
Ki (HLA-A0201 (human) [4]): 437 nM

KVLVLNPSV (modifications not checked)
IC50 (HLA-A*0201 (human) [3]): 50 nM
Ki (HLA-A0201 (human) [5]): 50 nM

GMFDSSVLC (modifications not checked)
IC50 (HLA-A*0201 (human) [3]): 114 nM
Ki (HLA-A0201 (human) [5]): 71 nM

YQATVCARA (modifications not checked)
Ki (HLA-A0201 (human) [5]): 20 nM
IC50 (HLA-A*0201 (human) [6]): 20 nM

IMACMSADL (modifications not checked)
Ki (HLA-A0201 (human) [5]; [8]): 66 nM
IC50 (HLA-A*0201 (human) [6]; [8]): 66 nM

NIIMYAPTL (modifications not checked)
Ki (HLA-A0201 (human) [5]): 70 nM
IC50 (HLA-A*0201 (human) [6]): 70 nM

YLFNWAVRT (modifications not checked)
Ki (HLA-A0201 (human) [5]): 29 nM
IC50 (HLA-A*0201 (human) [6]): 29 nM

RVCEKMALY (modifications not checked)
IC50 (HLA-A*0301 (human)): 53 nM
Ki (HLA-A0301 (human)): < 1000 nM

RVFTEAMTR (modifications not checked)
IC50 (HLA-A*0301 (human)): 45 nM
Ki (HLA-A0301 (human)): < 1000 nM

ALAHGVRVL (modifications not checked)
Ki (HLA-A0201 (human) [4]; [8]): 627 nM
Ki (HLA-B0702 (human) [1]; [8]): 7950 nM

DLCGSVFLV (modifications not checked)
Ki (HLA-A0201 (human) [4]; [8]): 789 nM

MALYDVVST (modifications not checked)
Ki (HLA-A0201 (human) [5]): 1140 nM

RLYIGGPLT (modifications not checked)
Ki (HLA-A0201 (human) [5]): 536 nM

TLWARMILM (modifications not checked)
Ki (HLA-A0201 (human) [5]): 8 nM

VVSTLPQAV (modifications not checked)
Ki (HLA-A0201 (human) [5]): 884 nM

AAYAAQGYK (modifications not checked)
Ki (HLA-A0301 (human)): < 1000 nM

VTLTHPITK (modifications not checked)
Ki (HLA-A0301 (human); [8]): < 1000 nM

GLTHIDAHF (modifications not checked)
Ki (HLA-A2402 (human)): 3 nM

IIMYAPTLW (modifications not checked)
Ki (HLA-A2402 (human)): 0.8 nM

RMILMTHFF (modifications not checked)
Ki (HLA-A2402 (human); [8]): 6 nM

VILDSFDPL (modifications not checked)
Ki (HLA-A2402 (human)): > 20000 nM

YYRGLDVSVI (modifications not checked)
Ki (HLA-Cw0702 (human)): 87 nM
Ki (HLA-A2402 (human)): 2 nM

APTLWARMIL (modifications not checked)
Ki (HLA-B0702 (human) [2]): 1 nM
Ki (HLA-B0702 (human) [1]; [8]): 1 nM

ATLGFGAYM (modifications not checked)
Ki (HLA-B0702 (human) [1]): 13000 nM

LPRRGPRLGV (modifications not checked)
Ki (HLA-B0702 (human) [2]): 3 nM
Ki (HLA-B0702 (human) [1]; [8]): 3 nM

APPPSWDQM (modifications not checked)
Ki (HLA-B0702 (human) [7]; [8]): < 1000 nM

APTLWARMI (modifications not checked)
Ki (HLA-B0702 (human) [7]; [8]): < 1000 nM

SPGQRVEFL (modifications not checked)
Ki (HLA-B0702 (human) [7]; [8]): < 1000 nM

TPAETSVRL (modifications not checked)
Ki (HLA-B0702 (human) [7]): < 1000 nM

GRKPARLIV (modifications not checked)
Ki (HLA-Cw0602 (human)): 2040 nM

GRRGIYRFV (modifications not checked)
Ki (HLA-Cw0602 (human)): 576 nM

NAVAYYRGL (modifications not checked)
Ki (HLA-Cw0602 (human); [8]): 10800 nM

RKPARLIVF (modifications not checked)
Ki (HLA-Cw0602 (human)): 8280 nM

TYSTYGKFL (modifications not checked)
Ki (HLA-Cw0602 (human); [8]): 4860 nM
Ki (HLA-Cw0702 (human)): 239 nM

VAYYRGLDV (modifications not checked)
Ki (HLA-Cw0602 (human)): 231 nM

YAAQGYKVLV (modifications not checked)
Ki (HLA-Cw0602 (human)): 9210 nM

YRRCRASGV (modifications not checked)
Ki (HLA-Cw0602 (human)): 634 nM

DQRPYCWHY (modifications not checked)
Ki (HLA-Cw0702 (human)): 710 nM

YRRCRASGVL (modifications not checked)
Ki (HLA-Cw0702 (human)): 83 nM

ADLMGYIPLVGAPLG (modifications not checked) [… (SEQ ID NO 2105)]
IC50 (HLA-DRB1*0101 (human); [8]): 8330 nM

GHRMAWDMMMNWSPT (modifications not checked) [… (SEQ ID NO 2142)]
IC50 (HLA-DRB1*0301 (human)): 919 nM
IC50 (HLA-DRB1*0101 (human)): 183 nM

SKGWRLLAPITAYAQ (modifications not checked) [… (SEQ ID NO 2213)]
IC50 (HLA-DRB1*0101 (human)): 0.4 nM

RAAVCTRGVAKAVDF (modifications not checked) [… (SEQ ID NO 2199)]
IC50 (HLA-DRB1*0101 (human)): 619 nM

GYKVLVLNPSVAATL (modifications not checked) [… (SEQ ID NO 2157)]
IC50 (HLA-DRB1*0101 (human)): 8.4 nM

WESVFTGLTHIDAHF (modifications not checked) [… (SEQ ID NO 2245)]
IC50 (HLA-DRB1*0101 (human); [8]): 122 nM

ASQLSAPSLKATCTT (modifications not checked) [… (SEQ ID NO 2111)]
IC50 (HLA-DRB1*0101 (human)): 329 nM

TTIMAKNEVFCVQPE (modifications not checked) [… (SEQ ID NO 2226)]
IC50 (HLA-DRB1*0101 (human); [8]): 3730 nM

GPRLGVRATRKTSER (modifications not checked) [… (SEQ ID NO 2149)]
IC50 (HLA-DRB1*0301 (human)): 18900 nM

PTHYVPESDAAARVT (modifications not checked) [… (SEQ ID NO 2193)]
IC50 (HLA-DRB1*0301 (human)): 4950 nM

GVNYATGNLPGCSFS (modifications not checked) [… (SEQ ID NO 2155)]
IC50 (HLA-DRB1*0101 (human)): 4560 nM

PQTFQVAHLHAPTGS (modifications not checked) [… (SEQ ID NO 2192)]
IC50 (HLA-DRB1*0101 (human)): 22 nM

GARLVVLATATPPGS (modifications not checked) [… (SEQ ID NO 2137)]
IC50 (HLA-DRB1*0101 (human); [8]): 173 nM

DVVVVATDALMTGYT (modifications not checked) [… (SEQ ID NO 2125)]
IC50 (HLA-DRB1*0101 (human); [8]): 456 nM

LAGYGAGVAGALVAF (modifications not checked) [… (SEQ ID NO 2166)]
IC50 (HLA-DRB1*0101 (human); [8]): 137 nM

GSSYGFQYSPGQRVE (modifications not checked) [… (SEQ ID NO 2153)]
IC50 (HLA-DRB1*0101 (human); [8]): 11 nM

ASCLRKLGVPPLRVW (modifications not checked) [… (SEQ ID NO 2110)]
IC50 (HLA-DRB1*0101 (human)): 4.9 nM

Reference: US20060093617A1
